Laboratory results from patent US20110263454A1, “Methods of Identifying Functional Characteristics of Promoters, Transcription Modifying Proteins and Transcription Modulating Agents” (Salk Institute for Biological Studies, priority 2008, published 2011).

Assays:
hCYP3A4 promoter = assay: NHR-promoter luciferase screen, hCYP3A4 promoter; format: cell-based, human; conditions: for Luc. act., normalized to lacZ / Normalized Luc. act., normalized to control: CYP3A4 promoter, HR/ligand component; for hCYP3A4 promoter reporter activity: transcription factor +/- ligand, control = 1.00
In short: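 Luciferase reporter read-out after co-expression in CV-1 cells of V5H6-tagged receptor (alone or with RXR), the promoter construct and LacZ. Values are luciferase/LacZ relative to a control lacking NHR or ligand; orphan receptors tested ligand-free.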

mUCP2 promoter = assay: NHR-promoter luciferase screen, mUCP2 promoter; format: cell-based, mouse; conditions: for Luc. act., normalized to lacZ / Normalized Luc. act., normalized to control: mUCP2 promoter reporter, co-transfected HR, with or without its ligand; for Normalized Luc. act., normalized to control: relative to control; for luciferase activity normalized to lacZ activity and to a control, mUCP2: mUCP2 promoter-luciferase, CV-1 cells, NHR +/- ligand, control = 1.00
In short: (§1)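 CV-1 cells were co-transfected with 50 ng NHR (homodimer or NHR/RXR heterodimer), 100 ng promoter-luciferase construct and 50 ng LacZ. Luciferase was normalized to LacZ and to a no-NHR/no-ligand control.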

mPOMC promoter = assay: NHR-promoter luciferase screen, mPOMC promoter; format: cell-based, mouse; conditions: for Results of assays of transcription factor (+/- ligand) with mPOMC: Table 6d, luciferase activity relative to control (control = 1.00); for Luc. act., normalized to lacZ / Normalized Luc. act., normalized to control: mPOMC promoter, HR component with or without ligand; for Normalized Luc. act., normalized to control: relative to control
In short: as §1

mLeptin promoter = assay: NHR-promoter luciferase screen, mLeptin promoter; format: cell-based, mouse; conditions: for Luc. act., normalized to lacZ / Normalized Luc. act., normalized to control: Table 7, mLeptin; for Results of assays of transcription factor (+/- ligand) with mLeptin: Table 6d, luciferase activity relative to control (control = 1.00)
In short: as §1

hIRF7 promoter = assay: NHR-promoter luciferase screen, hIRF7 promoter; format: cell-based, human; conditions: for Normalized Luc. act., normalized to control / Luc. act., normalized to lacZ: IRF7 promoter reporter; for Normalized Luc. act., normalized to control: HR without or with its ligand, relative to control; for Luc. act., normalized to lacZ: hormone receptor (HR) without or with its ligand; for hIRF7 promoter reporter activity: transcription factor +/- ligand, control = 1.00
In short: as §1

mCAR promoter = assay: NHR-promoter luciferase screen, mCAR promoter; format: cell-based, mouse; conditions: for luciferase activity normalized to lacZ activity and to a control, mCAR: mCAR promoter-luciferase, CV-1 cells, NHR +/- ligand, control = 1.00; for Luc. act., normalized to lacZ / Normalized Luc. act., normalized to control: mCAR promoter, HR/ligand component
In short: as §1

Molecule | Luc. act., normalized to lacZ (hCYP3A4 promoter) | Normalized Luc. act., normalized to control (hCYP3A4 promoter) | hCYP3A4 promoter reporter activity (hCYP3A4 promoter) | Luc. act., normalized to lacZ (mUCP2 promoter) | Normalized Luc. act., normalized to control (mUCP2 promoter) | luciferase activity normalized to lacZ activity and to a control, mUCP2 (mUCP2 promoter) | Results of assays of transcription factor (+/- ligand) with mPOMC (mPOMC promoter) | Luc. act., normalized to lacZ (mPOMC promoter) | Normalized Luc. act., normalized to control (mPOMC promoter) | Luc. act., normalized to lacZ (mLeptin promoter) | Normalized Luc. act., normalized to control (mLeptin promoter) | Results of assays of transcription factor (+/- ligand) with mLeptin (mLeptin promoter) | Normalized Luc. act., normalized to control (hIRF7 promoter) | Luc. act., normalized to lacZ (hIRF7 promoter) | hIRF7 promoter reporter activity (hIRF7 promoter) | luciferase activity normalized to lacZ activity and to a control, mCAR (mCAR promoter) | Luc. act., normalized to lacZ (mCAR promoter) | Normalized Luc. act., normalized to control (mCAR promoter)
RXRg: Retinoic X Receptor γ (NR2B3), cDNA driver (protein, UniProt P48443 1-463, looked up) Retinoic acid receptor …: MYGNYSHFMKFPAGYGGSPGHTGSTSMSPSAALSTGKPMDSHPSYTDTPVSAPRTLSAVGTPLNALGSPYRVITSAMGPPSGALAAPPGINLVAPPSSQLNVVNSVSSSEDIKPLPGLPGIGNMNYPSTSPGSLVKHICAICGDRSSGKHYGVYSCEGCKGFFKRTIRKDLIYTCRDNKDCLIDKRQRNRCQYCRYQKCLVMGMKREAVQEERQRSRERAESEAECATSGHEDMPVERILEAELAVEPKTESYGDMNMENSTNDPVTNICHAADKQLFTLVEWAKRIPHFSDLTLEDQVILLRAGWNELLIASFSHRSVSVQDGILLATGLHVHRSSAHSAGVGSIFDRVLTELVSKMKDMQMDKSELGCLRAIVLFNPDAKGLSNPSEVETLREKVYATLEAYTKQKYPEQPGRFAKLLLRLPALRSIGLKCLEHLFFFKLIGDTPIDTFLMEMLETPLQIT | 0.9 | 0.2 | 0.19 | 144.4 | 1.3 | 1.31 | 1.06 | 73.2 | 1.1 | 2.1 | 0.7 | 0.70 | 1.0 | 27.4 | 1.04 | 1.25 | 47.5 | 1.2
FXR: Farnesoid X Receptor (NR1H4), cDNA driver (protein, UniProt Q96RI1 1-486, looked up) Bile acid receptor: MVMQFQGLENPIQISPHCSCTPSGFFMEMMSMKPAKGVLTEQVAGPLGQNLEVEPYSQYSNVQFPQVQPQISSSSYYSNLGFYPQQPEEWYSPGIYELRRMPAETLYQGETEVAEMPVTKKPRMGASAGRIKGDELCVVCGDRASGYHYNALTCEGCKGFFRRSITKNAVYKCKNGGNCVMDMYMRRKCQECRLRKCKEMGMLAECMYTGLLTEIQCKSKRLRKNVKQHADQTVNEDSEGRDLRQVTSTTKSCREKTELTPDQQTLLHFIMDSYNKQRMPQEITNKILKEEFSAEENFLILTEMATNHVQVLVEFTKKLPGFQTLDHEDQIALLKGSAVEAMFLRSAEIFNKKLPSGHSDLLEERIRNSGISDEYITPMFSFYKSIGELKMTQEEYALLTAIVILSPDRQYIKDREAVEKLQEPLLDVLQKLCKIHQPENPQHFACLLGRLTELRTFNHHHAEMLMSWRVNDHKFTPLLCEIWDVQ | 4.2 | 0.9 | 0.93 | 111.6 | 1.0 | 1.02 | 1.20 | 82.5 | 1.2 | 2.8 | 0.9 | 0.95 | 1.6 | 41.8 | 1.59 | 0.88 | 33.6 | 0.9
PXR: Pregnane X Receptor (NR1I2), cDNA driver (protein, UniProt O75469 1-434, looked up) Nuclear receptor subfamily 1 …: MEVRPKESWNHADFVHCEDTESVPGKPSVNADEEVGGPQICRVCGDKATGYHFNVMTCEGCKGFFRRAMKRNARLRCPFRKGACEITRKTRRQCQACRLRKCLESGMKKEMIMSDEAVEERRALIKRKKSERTGTQPLGVQGLTEEQRMMIRELMDAQMKTFDTTFSHFKNFRLPGVLSSGCELPESLQAPSREEAAKWSQVRKDLCSLKVSLQLRGEDGSVWNYKPPADSGGKEIFSLLPHMADMSTYMFKGIISFAKVISYFRDLPIEDQISLLKGAAFELCQLRFNTVFNAETGTWECGRLSYCLEDTAGGFQQLLLEPMLKFHYMLKKLQLHEEEYVLMQAISLFSPDRPGVLQHRVVDQLQEQFAITLKSYIECNRPQPAHRFLFLKIMAMLTELRSINAQHTQRLLRIQDIHPFATPLMQELFGITGS | 8.8 | 2.0 | 1.98 | 119.1 | 1.1 | 1.08 | 1.30 | 89.4 | 1.3 | 4.1 | 1.4 | 1.40 | 1.4 | 36.3 | 1.38 | 1.49 | 56.8 | 1.5
